The values that follow come from patent publication US11491212.

First the molecules themselves.
B1: FIXa K247N/N249S/R318Y/R338E/T343R (protein)
chain 1: not shown
chain 2: not shown
B2: FIXa Y155F/R318Y/T343R/R403E (protein)
chain 1: not shown
chain 2: not shown
B3: FIXa Y155F/K247N/N249S/R318Y/R338E/T343R (protein)
chain 1: not shown
chain 2: not shown
B4: FIXa Y155F/K247N/N249S/R403E/E410N (protein)
chain 1: not shown
chain 2: not shown
B5: FIXa K228N/R318Y/R338E/T343R/R403E/E410N (protein)
chain 1: not shown
chain 2: not shown
B6: FIXa R318Y/T343R/E410N (protein)
chain 1: not shown
chain 2: not shown
B7: FIXa R318Y/R338E/T343R (protein)
chain 1: not shown
chain 2: not shown
B8: FIXa Y155F/R338E/T343R/E410N (protein)
chain 1: not shown
chain 2: not shown
B9: FIXa K228N/K247N/N249S/R318Y/R338E/T343R/R403E (protein)
chain 1: not shown
chain 2: not shown
B10: FIXa Y155F/T343R/R403E/E410N (protein)
chain 1: not shown
chain 2: not shown
B11: FIXa Y155F/K247N/N249S/T343R/E410N (protein)
chain 1: not shown
chain 2: not shown
B12: FIXa Y155F/R318Y/T343R/E410N (protein)
chain 1: not shown
chain 2: not shown

The target of one data set is Factor X, P00742.
Sequence of Factor X, P00742 (P00742 whole entry, looked up): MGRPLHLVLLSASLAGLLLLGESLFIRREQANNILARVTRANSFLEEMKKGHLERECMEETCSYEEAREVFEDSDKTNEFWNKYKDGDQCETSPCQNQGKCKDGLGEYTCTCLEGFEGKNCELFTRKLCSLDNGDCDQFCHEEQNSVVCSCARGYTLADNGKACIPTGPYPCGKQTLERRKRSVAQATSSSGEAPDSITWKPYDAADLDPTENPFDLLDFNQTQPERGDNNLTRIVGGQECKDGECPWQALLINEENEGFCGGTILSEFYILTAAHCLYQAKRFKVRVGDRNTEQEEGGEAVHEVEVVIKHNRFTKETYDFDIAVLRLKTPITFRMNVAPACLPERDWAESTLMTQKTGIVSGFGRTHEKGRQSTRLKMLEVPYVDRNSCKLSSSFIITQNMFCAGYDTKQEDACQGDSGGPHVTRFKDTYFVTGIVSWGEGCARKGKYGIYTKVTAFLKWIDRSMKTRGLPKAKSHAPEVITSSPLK
As for B1, the “% of WT kcat/KM” value stood at 840% and the kcat/KM stood at 3.9e+08 M⁻¹ s⁻¹.
On to B2, for which the “% of WT kcat/KM” value was 154% and the kcat/KM worked out at 7.1e+07 M⁻¹ s⁻¹.
With B3, the “% of WT kcat/KM” value worked out at 772% and the kcat/KM is 3.6e+08 M⁻¹ s⁻¹.
For the protein B4, the “% of WT kcat/KM” value is 53% and the kcat/KM came out at 2.4e+07 M⁻¹ s⁻¹.
As to B5, the “% of WT kcat/KM” value is on record as 593% and the kcat/KM came out at 2.7e+08 M⁻¹ s⁻¹.
In the case of B6, the “% of WT kcat/KM” value turned out to be 135% and the kcat/KM worked out at 6.2e+07 M⁻¹ s⁻¹.
B7: the “% of WT kcat/KM” value was found to be 324% and the kcat/KM was 1.5e+08 M⁻¹ s⁻¹.
For B8 the same measures were 761% and 3.5e+08 M⁻¹ s⁻¹.
As for B9, the “% of WT kcat/KM” value worked out at 636% and the kcat/KM is 2.9e+08 M⁻¹ s⁻¹.
In the case of B10, the “% of WT kcat/KM” value was found to be 321% and the kcat/KM is 1.5e+08 M⁻¹ s⁻¹.
Regarding B11, the “% of WT kcat/KM” value came to 599% and the kcat/KM was found to be 2.8e+08 M⁻¹ s⁻¹.
As for B12, the “% of WT kcat/KM” value is listed as 326% and the kcat/KM turned out to be 1.5e+08 M⁻¹ s⁻¹.

The target of a further data set is Factor X (FX), P00742.
Sequence of Factor X (FX), P00742 (P00742 whole entry, looked up): as above
Take B1: the kcat (s^-1), activation of FX by FIXa in the Xase complex stood at 8 s⁻¹.
Turning to B2, the kcat (s^-1), activation of FX by FIXa in the Xase complex turned out to be 5 s⁻¹.
Regarding B3, the kcat (s^-1), activation of FX by FIXa in the Xase complex was 8.5 s⁻¹.
For B4, the kcat (s^-1), activation of FX by FIXa in the Xase complex stood at 2.7 s⁻¹.
With B5, the kcat (s^-1), activation of FX by FIXa in the Xase complex was 10.5 s⁻¹.
Regarding B6, the kcat (s^-1), activation of FX by FIXa in the Xase complex was 3.2 s⁻¹.
Same read-out and setting: to B7 belongs 4.5 s⁻¹; to B8, 6 s⁻¹; to B9, 10.9 s⁻¹.
On the same count and under the same terms, to B10 belongs 6.6 s⁻¹; to B11, 7.9 s⁻¹.
B12: the kcat (s^-1), activation of FX by FIXa in the Xase complex turned out to be 5 s⁻¹.

The kcat/KM is the second-order rate constant that governs catalysis at low substrate concentration.
